Test results: paper PMC3166428

Molecular target: GST-TRIP8b(1b-2) full
Assay: pull-down

- fraction of loaded clathrin in the eluate (fraction of loaded clathrin): > 0.67
Substance: clathrin (from UniProt P11442 1-1675; P08081 1-248) (complex)
